Molecular target: human ApoB100 (human) (UniProt P04114)
Assay: cell-based or functional assay

Sequence of UniProt P04114 (P04114 28-4563 limits assumed): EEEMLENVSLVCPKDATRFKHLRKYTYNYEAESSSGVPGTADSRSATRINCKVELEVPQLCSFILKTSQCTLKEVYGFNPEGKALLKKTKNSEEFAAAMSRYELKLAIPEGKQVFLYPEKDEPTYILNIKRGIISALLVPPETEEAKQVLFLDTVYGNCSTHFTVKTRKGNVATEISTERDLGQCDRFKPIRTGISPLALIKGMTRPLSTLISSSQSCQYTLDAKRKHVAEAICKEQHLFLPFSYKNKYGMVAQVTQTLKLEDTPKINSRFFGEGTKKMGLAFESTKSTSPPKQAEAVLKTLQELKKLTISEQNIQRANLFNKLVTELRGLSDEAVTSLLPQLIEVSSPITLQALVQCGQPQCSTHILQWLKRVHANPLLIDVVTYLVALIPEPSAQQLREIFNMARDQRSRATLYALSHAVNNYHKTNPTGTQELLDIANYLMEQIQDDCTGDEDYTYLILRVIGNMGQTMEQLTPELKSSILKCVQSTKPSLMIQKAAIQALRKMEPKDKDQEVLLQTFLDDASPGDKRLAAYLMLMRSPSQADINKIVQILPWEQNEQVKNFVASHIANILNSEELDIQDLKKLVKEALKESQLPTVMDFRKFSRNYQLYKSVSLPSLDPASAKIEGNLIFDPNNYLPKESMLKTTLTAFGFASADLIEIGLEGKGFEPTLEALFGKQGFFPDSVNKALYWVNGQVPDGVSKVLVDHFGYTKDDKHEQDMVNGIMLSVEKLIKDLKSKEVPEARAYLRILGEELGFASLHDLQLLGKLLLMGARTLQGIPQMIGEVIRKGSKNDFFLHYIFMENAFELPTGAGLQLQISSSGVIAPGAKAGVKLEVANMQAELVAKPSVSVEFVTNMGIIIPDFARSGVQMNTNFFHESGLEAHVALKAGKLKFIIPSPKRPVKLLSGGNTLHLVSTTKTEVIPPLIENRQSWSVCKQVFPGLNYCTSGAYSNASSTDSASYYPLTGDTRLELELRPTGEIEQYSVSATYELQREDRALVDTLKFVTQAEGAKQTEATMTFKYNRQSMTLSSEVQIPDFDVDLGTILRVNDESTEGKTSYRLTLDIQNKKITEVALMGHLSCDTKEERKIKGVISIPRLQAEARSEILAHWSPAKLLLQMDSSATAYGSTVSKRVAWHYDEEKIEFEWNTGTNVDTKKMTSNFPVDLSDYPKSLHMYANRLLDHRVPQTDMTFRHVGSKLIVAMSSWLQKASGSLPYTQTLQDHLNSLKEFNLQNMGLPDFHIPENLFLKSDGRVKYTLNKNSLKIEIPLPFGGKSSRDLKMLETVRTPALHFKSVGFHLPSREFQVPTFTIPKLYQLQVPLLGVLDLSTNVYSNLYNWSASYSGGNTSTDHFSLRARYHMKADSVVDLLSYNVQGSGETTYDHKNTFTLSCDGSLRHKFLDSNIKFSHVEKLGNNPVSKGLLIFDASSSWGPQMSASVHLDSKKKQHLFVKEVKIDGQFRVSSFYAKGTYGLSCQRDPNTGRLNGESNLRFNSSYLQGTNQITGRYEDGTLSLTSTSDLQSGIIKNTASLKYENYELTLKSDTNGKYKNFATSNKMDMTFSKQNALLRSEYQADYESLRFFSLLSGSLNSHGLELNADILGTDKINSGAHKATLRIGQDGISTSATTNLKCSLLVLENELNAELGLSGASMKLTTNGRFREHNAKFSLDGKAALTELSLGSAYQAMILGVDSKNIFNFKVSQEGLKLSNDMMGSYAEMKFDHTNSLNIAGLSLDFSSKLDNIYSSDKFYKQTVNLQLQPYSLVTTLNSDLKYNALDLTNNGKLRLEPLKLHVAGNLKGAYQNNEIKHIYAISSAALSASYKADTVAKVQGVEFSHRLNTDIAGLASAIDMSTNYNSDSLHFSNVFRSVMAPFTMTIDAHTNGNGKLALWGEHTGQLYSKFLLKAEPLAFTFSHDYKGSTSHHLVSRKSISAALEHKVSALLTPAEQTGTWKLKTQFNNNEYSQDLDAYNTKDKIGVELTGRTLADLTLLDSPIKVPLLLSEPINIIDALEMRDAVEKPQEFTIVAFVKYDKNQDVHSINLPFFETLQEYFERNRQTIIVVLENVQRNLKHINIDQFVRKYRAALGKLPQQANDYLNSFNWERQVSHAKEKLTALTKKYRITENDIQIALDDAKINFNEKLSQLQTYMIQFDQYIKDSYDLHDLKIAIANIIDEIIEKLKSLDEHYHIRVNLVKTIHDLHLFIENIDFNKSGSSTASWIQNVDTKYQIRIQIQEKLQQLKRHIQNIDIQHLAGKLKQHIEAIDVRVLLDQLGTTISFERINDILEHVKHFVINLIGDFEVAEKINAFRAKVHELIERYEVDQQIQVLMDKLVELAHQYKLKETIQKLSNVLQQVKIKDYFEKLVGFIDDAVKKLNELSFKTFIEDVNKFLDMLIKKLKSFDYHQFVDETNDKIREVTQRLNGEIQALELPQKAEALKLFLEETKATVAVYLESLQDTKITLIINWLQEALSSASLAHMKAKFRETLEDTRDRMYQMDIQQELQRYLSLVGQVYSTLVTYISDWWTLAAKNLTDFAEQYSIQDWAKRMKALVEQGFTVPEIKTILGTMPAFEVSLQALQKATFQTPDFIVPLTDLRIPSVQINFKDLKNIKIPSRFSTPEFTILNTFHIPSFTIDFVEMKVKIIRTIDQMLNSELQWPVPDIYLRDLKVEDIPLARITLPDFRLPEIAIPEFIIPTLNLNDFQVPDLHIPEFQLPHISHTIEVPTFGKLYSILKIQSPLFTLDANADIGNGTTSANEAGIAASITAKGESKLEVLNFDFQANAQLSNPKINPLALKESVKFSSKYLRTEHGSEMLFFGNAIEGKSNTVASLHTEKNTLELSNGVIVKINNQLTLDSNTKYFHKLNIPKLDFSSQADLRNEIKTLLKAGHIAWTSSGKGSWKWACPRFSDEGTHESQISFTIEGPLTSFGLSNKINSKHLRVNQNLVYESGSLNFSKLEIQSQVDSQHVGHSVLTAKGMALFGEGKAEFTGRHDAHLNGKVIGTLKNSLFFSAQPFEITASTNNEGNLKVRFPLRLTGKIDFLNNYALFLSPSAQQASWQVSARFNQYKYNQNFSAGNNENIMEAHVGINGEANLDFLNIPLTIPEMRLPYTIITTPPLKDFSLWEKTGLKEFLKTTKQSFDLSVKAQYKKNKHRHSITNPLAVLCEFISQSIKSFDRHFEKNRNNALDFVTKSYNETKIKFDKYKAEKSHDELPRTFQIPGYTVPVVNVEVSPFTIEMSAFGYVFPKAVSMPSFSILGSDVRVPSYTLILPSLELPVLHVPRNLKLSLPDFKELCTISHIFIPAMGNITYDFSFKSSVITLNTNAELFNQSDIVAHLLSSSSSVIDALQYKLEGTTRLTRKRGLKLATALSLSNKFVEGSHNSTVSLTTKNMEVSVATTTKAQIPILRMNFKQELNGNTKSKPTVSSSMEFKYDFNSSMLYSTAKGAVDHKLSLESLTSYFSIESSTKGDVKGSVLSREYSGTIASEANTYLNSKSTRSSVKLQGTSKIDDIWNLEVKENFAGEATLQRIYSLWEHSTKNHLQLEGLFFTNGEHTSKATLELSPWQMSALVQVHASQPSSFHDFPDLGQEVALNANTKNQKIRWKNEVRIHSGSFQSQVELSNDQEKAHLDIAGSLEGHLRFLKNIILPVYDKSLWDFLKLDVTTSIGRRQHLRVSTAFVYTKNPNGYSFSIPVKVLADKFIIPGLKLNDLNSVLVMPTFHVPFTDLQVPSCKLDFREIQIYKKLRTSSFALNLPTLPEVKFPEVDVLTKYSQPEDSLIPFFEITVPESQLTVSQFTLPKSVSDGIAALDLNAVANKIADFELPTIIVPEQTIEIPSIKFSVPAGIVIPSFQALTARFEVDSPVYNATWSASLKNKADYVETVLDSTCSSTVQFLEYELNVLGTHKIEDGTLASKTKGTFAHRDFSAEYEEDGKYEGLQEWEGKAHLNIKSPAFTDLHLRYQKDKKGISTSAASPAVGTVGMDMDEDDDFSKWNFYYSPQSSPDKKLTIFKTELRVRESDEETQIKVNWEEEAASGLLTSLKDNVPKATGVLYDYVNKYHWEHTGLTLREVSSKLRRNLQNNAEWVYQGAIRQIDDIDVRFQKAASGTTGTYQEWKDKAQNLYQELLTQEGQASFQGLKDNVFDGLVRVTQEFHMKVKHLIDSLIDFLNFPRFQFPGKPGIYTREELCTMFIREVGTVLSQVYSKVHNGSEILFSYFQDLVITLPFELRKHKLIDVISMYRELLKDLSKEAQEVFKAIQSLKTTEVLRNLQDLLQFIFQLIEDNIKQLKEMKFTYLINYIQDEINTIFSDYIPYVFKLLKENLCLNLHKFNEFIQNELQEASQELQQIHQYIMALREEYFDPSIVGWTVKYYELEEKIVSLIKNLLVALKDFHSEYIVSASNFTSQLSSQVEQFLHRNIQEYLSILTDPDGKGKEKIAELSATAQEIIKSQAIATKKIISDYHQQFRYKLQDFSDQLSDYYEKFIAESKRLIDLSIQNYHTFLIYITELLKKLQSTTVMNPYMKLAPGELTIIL

reduction of serum cholesterol in LAHB mice after AAV8.TBG.hLDLR: 30%
Substance: human low density lipoprotein receptor (hLDLR) (from UniProt P01130 22-860)

Reference: patent US20210285013A1
